Laboratory results taken from the nanobody polyreactivity screen of Harvey et al. (2022).

Experiment: yeast display, Sf9 membrane polyspecificity reagent, FACS + sequencing; frameworks hold sequencing errors
Summary of the method: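 Galactose-induced (36–48 hours) yeast carrying a synthetic nanobody display library were exposed to 10% biotinylated, detergent-solubilized Sf9 membrane reagent at 4 °C for 1 hour. FACS followed streptavidin microbead enrichment, using low and high (top ~1%) gates for expression (anti-HA) and reagent binding (streptavidin). Colony PCR, MiSeq 2 × 250 sequencing and CDR-length filtering followed. Labels for polyreactivity reflect the gate of origin.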
With “QVQLVESGGGLVQEGGSLRLSCAASGLTFAGYAMGWYRQATGKERELVAAITTGGSTYYADSVNGRFTISRDNAKNTVYLQMNSLKPEDTAVYYCAARRVRKALVGYGYWGQGTQVTVSS” the “polyreactivity (PSR sort gate)” value was “high polyreactivity”. In the case of “QVQLVESVGGLVQAGGSLRLSCAASGSTLFYNAMGWYRQAPGKERELVATISGGGVSTYYADSVKGRFTISRDNAKNSVYLQMNSLNPEDTAVYYCAAAGWSEGGYDYWGQGTQVTVSS”, the “polyreactivity (PSR sort gate)” value is reported as “low polyreactivity”. For “QVQLVESGGGLVKEGGSLRLRCAASGRTFYVNAMGWSRQAPGKERELFASISSSGGSTYYADSVKGRFTSSRDNAKNTVYLQMNRLKPEDTEVYYCAKGYWPFWRGDRFYWGQGTQVTVSS”, the “polyreactivity (PSR sort gate)” value was “high polyreactivity”. For “QVQHVESGGGLVQAGGSLRLSCAASGFILPWYVMGWYRQAPGKERELVAAISGTGGSTYYADSVKGRFTISRDNAKNTVYLQMNSLKPEDTAVYYCAAGAFYAGYYWEFYYWGQGTQVTVSS”, the “polyreactivity (PSR sort gate)” value was “high polyreactivity”. For “QVQLVESGGGLVQAGGSLRLSCAASGSTFSGYAMGWYRQAPGKERELVAAISSSGGGTYYADSVKGRFTISRDNAKNTDYLQMNSLKPEDTAVYYCAARVGYRYRKGRYDYWGKGTQVTVSS”, the “polyreactivity (PSR sort gate)” value was “high polyreactivity”. In the case of “QVQLVESGRGLVQAGGSLPLSCAASGRTFPSNTMGWYRPAPGKERELVAAINRSGGTTYYADSVKGRCTISRDKAKNTVYLQINSLKPEDTAVYYCAVLSRYKACRKYDYWGQCTQVTVSS”, the “polyreactivity (PSR sort gate)” value is reported as “high polyreactivity”. With “QVQLVESGGGLVQAGGSLRLSCAASGSTIRLYAMGWYRQAPGKERELVAAISVSGGSTHYADSVKGRFTISRDNAKNTVYLQMNSLKPEDTAVYYCNAAGNPVSRYHYDYWGQGTQVTVSS” the “polyreactivity (PSR sort gate)” value was “high polyreactivity”. With “QVQLVESGGGLVQAGGSLRLSCAASGRTLSRYAMGWYRQAPGKEREFVAGISASGGRTYYADSVKGRFTISRDNAKNTVYLQMNSLKPEDTAVYYCAAQLPWAGGKYDYWGQGTQVTVSS” the “polyreactivity (PSR sort gate)” value was “high polyreactivity”. In the case of “QVQLVESGGGLVQAGGSLRLSCAASGRTFCRYAMGWYRQAPGKERELVAAIRSGASTYYADSVKGRFTISPDNGKNTVYLQMKSLIPEDTAVYYCAADIARHLTGFAYYRLDYWGQGTQVTVSS”, the “polyreactivity (PSR sort gate)” value is reported as “low polyreactivity”. For “QVQLVESGGGLVQAGGSLRLSCAASGSTLSAYVMGWYRQAPGKERELVAAISQSADSTYYADSVKGRFTILRDNAKNTVYLQMNSLKPEDTAVYYCAAEYPYIYRFDYWGQGTQVTVSS”, the “polyreactivity (PSR sort gate)” value was “low polyreactivity”. With “QVQLVESGGGIVQAGGSLRLICAASGSIFDVNALGWYSQAPGKERELVAAITWSGGNTYYADSVKGRFTISRDNAKNNFYLQMYSLKPEDTAVYYCNVYVSAGEEDEYWGQVTQVTVSS” the “polyreactivity (PSR sort gate)” value was “low polyreactivity”. For “QVQLVESGGGLVQAGGSLRLSCAASGFTFGYNAMGWYRQAPGKEREFVAAITKSGDSTYYADSVKGRFTISRDNAKNSVYLQMNSLKPEDTAVYYCAAQYRQRRHDYWGQGTQVTVSS”, the “polyreactivity (PSR sort gate)” value was “high polyreactivity”. With “QVQLVESGGGLVQAGGSLRLSCAASGSTFLRNAMGWYRQAPGKERELVATISTGSGRTYYADSVKGRFTISRDNAKNTVYLQMNSLKPEDTAVYYCATRVPLGPYYYGMYYWGQGTQVTVSS” the “polyreactivity (PSR sort gate)” value was “high polyreactivity”. For “QVQLVESGGGLVQAGGSLRLSCAASGSIFVSYAMGWYRQAPGKERELVAAITWSGGSTYYADSVKGRFTISRDNAKNTVYLQMKSLKPEDTAVYYCAADEPYPTAYEYWGQGTQVTVSS”, the “polyreactivity (PSR sort gate)” value was “low polyreactivity”. In the case of “QVQLVESGGGLVQAGGSLRLSCAASGSTFTQYVMGWYRQAPGKERELVAAISDSGSTYYADSVKGRFTISRDNAKNTVYLQMNSLKPEDTAVYYCATDVLAWAPYDYWGQGTQVTVSS”, the “polyreactivity (PSR sort gate)” value is reported as “low polyreactivity”. For “QVQHVESGGGLFQAGGSLRLSCAASGTTFRYYAMGWYRQAPVKERELVAYITTSGGTYYADSVKGRFTISRDNAKNTVYLQMNSLKPEDTAVDYCAARRQDYTYYRIYNFDYWGQGTQVTVSS”, the “polyreactivity (PSR sort gate)” value was “high polyreactivity”. With “QVQLVESVGGLVQAGGSLRLSCDASGSIFASYAMGGYRQAPGKERELVAAISTSGVSTHYADSVNGRFTISRENAKNTVYLQLNSLKQEDTAVYYCAATPGYKRYYWGQGTQVTVSS” the “polyreactivity (PSR sort gate)” value was “high polyreactivity”.
